B1: Aurora A kinase (AurA), residues 122 to 403 (domain or fragment)
chain: ESKKRQWALEDFEIGRPLGKGKFGNVYLAREKQSKFILALKVLFKAQLEKAGVEHQLRREVEIQSHLRHPNILRLYGYFHDATRVYLILEYAPLGTVYRELQKLSKFDEQRTATYITELANALSYCHSKRVIHRDIKPENLLLGSAGELKIADFGWSVHAPSSRRTTLCGTLDYLPPEMIEGRMHDEKVDLWSLGVLCYEFLVGKPPFEANTYQETYKRISRVEFTFPDFVTEGARDLISRLLKHNPSQRPMLREVLEHPWITANSSKPSNCQNKESASKQS
B2: monobody Mb2 (designed binder)
chain: GSVSSVPTKLEVVAATPTSLLISWDAPAVTVVHYVITYGETGGNSPVQEFTVPGSKSTATISGLKPGVDYTITVYAIDFYWGSYSPISINYRT

Values joined by “and” are separate entries in the source; they are usually repeats but may differ in a detail not shown here. Equal entries are not always repeated.

In test [1] the target is Mb3. The experiment in a line: ITC; AurA preincubated with danusertib. A general note: Isothermal titration calorimetry measures the heat released or taken up as one component is titrated into another.
Test [2] has as its target Mb3. The experiment in a line: ITC.
Test [3] concerns the target B1. Put plainly: ITC.

A word on the Kd: it is the constant that tells how readily two partners part at equilibrium. Regarding B1, the Kd in test [1] came out at 69 nM; in test [2], 180 nM.
Take B2: the Kd in test [3] is 889 nM and 1500 nM.

(Values after article PMC10450579 (2023).)
